Experimental data taken from article PMC6093708, “Ligand discrimination and gating in cyclic nucleotide-gated ion channels from apo and partial agonist-bound cryo-EM structures” (eLife, 2018).

Key:
[1] = biological target: T1, SthK (Winmispira thermophila, UniProt G0GA88); assay: single-channel recording in horizontal lipid bilayer; assay type: biochemical; details: very poor partial agonist; 7 mM cGMP; +100 mV; KCl, pH 7.0
T1 construct: gene Spith_0644; C-terminally truncated SthK 1-420; 19 extra N-terminal vector residues kept; expressed in E. coli C41(DE3); homotetramer in POPG/MSP1E3 nanodiscs or liposomes
T1 sequence (G0GA88 entry or part of it): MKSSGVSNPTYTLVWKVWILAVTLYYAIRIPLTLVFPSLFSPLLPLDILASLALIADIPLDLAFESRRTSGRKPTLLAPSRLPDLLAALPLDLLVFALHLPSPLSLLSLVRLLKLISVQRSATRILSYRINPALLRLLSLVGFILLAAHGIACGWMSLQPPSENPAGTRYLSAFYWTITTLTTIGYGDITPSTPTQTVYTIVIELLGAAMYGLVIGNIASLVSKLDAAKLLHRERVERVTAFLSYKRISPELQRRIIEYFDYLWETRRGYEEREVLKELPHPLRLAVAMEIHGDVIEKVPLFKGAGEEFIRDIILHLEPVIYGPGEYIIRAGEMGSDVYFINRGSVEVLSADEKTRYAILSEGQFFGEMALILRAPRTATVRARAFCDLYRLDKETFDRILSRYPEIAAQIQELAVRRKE

[2] = biological target: SthK 1-420, cyclic nucleotide-gated potassium channel from Spirochaeta thermophila (Spirochaeta thermophila); assay: cryo-EM structure; SthK in POPG/MSP1E3 lipid nanodiscs; apo, with 2 mM cAMP or with 7 mM cGMP; 20 mM HEPES pH 8.0, 100 mM KCl; refined with C4 symmetry and without symmetry (C1)
[3] = biological target: SthK 1-420, cyclic nucleotide-gated potassium channel from Spirochaeta thermophila (Spirochaeta thermophila); assay: negative stain electron microscopy; SthK in lipid nanodiscs (20 ug/mL), uranyl acetate stain, 2D classification

| Po [1] | stoichiometry N [2] | stoichiometry N [3] | Molecule |
| --- | --- | --- | --- |
| ~ 0.003 |  |  | Nc1nc2c(ncn2[C@@H]2O[C@@H]3COP(=O)(O)O[C@H]3[C@H]2O)c(=O)[nH]1 [cGMP] |
|  | 4 | 4 | SthK 1-420, cyclic nucleotide-gated potassium channel from Spirochaeta thermophila (natural protein) |
